In series [1] the test system is C57BL/6J mice. As to the kind of experiment: Rimonabant treatment of high fat diet fed mice, glucose tolerance. The format is in vivo, mouse. The settings on record: HFD C57BL/6J mice, rimonabant 10 mg·kg−1·day−1 for one month. From the text:
C57BL/6J mice, which are obesity-prone (5), were fed for 6 months with a high fat diet (HFD).

Series [2] relates to 3T3-L1 cells. Description: Adipogenesis of retrovirally transduced 3T3-L1 cells (oil-red-O staining, aP2 mRNA by RT-PCR). The series is classed as cell-based, mouse. The method, then: 3T3-L1 cells were cultured in DMEM (Gibco) with 10% FBS (Gibco) at 5% CO2. After retroviral infection (see below), cells were allow to grow to confluence in either 100-mm or 60-mm dishes in DMEM with 10% FBS. Once confluence was reached, cells were exposed to differentiation medium containing dexamethasone (1 μM), insulin (5 μg/ml), and isobutylmethylxanthine ([…]) (DMI). After 2 days cells were maintained in medium containing insulin ([…]) until ready for harvest at 7 days.
After 7 to 10 days of differentiation, cells were washed once in PBS and fixed with formaldehyde (Formalde-fresh; Fisher) for 15 minutes. The staining solution was prepared by dissolving 0.5 g oil-red-0 in 100 ml of isopropanol; 60 ml of this solution was mixed with 40 ml of distilled water. After 1 hour at room temperature the staining solution was filtered and added to dishes for 4 hours. The staining solution was then removed and cells were washed twice with distilled water.
Retroviruses were constructed in the RNAi-Ready pSIREN-RetroQ ZsGreen (pSIREN Clontech). Viral constructs were transfected using calcium-phosphate method described in Jordan, M. et al. (2004) into 293 HEK packaging cells along with constructs encoding gag-pol and the VSV-G protein. […]

Series [3] has as its system Zdhhc2. As to the kind of experiment: shRNA knockdown of Zdhhc2 expression, mRNA by RT-PCR. The series is classed as cell-based, mouse. The settings on record: shRNA in pSIREN plasmid, tested in 293T HEK cells; mRNA by RT-PCR (FIG. 3A). From the text: shRNAs were constructed using the RNAi-Ready pSIREN-RetroQ ZsGreen (Clontech). Target sequences for Zdhhc2 were designed by querying the Whitehead siRNA algorithm (http://jura.wi.mit.edu/bioc/siRNAext/) as well as the siRNA designer software from Clontech (http://bioinfo.clontech.com/rnaidesigner/); at least two sequences represented by both algorithms were subcloned into the pSIREN vectors (Clontech) using the EcoRI and BamH1 restriction sites. The following target sequences for Zdhhc2 were chosen SEQ ID NO. 5 and 6 as a negative control, we used the following siRNA sequence against luciferase: SEQ ID NO. 7.
The specificity of shRNAs was tested in 293T HEK cells co-transfected using calcium-Phosphate methods described in (14) with expression vectors containing Zdhhc2 cDNA and the RNAi-Ready pSIREN-RetroQ ZsGreen vector expressing either the shRNA against lucifeare (control shLUC) or Zdhhc2 (shZdhhc2). RT-PCR analysis was performed on cell RNA-extraction 24 h after transfection.
Total RNA was isolated from cultured cells using peqGOLD TriFast reagent according to the manufacturer's instructions (Axonlab). First strand cDNA was synthesized from 0.5 μg of total RNA using random primers and Superscript II (Invitrogen). […]
For the loss-of-function studies, shRNA specific for Zdhhc2 subcloned into a retroviral vector from Clontech were used (RNAi-Ready pSIREN-RetroQ ZsGreen or pSIREN). […]

On to `Cc1c(C(=O)NN2CCCCC2)nn(-c2ccc(Cl)cc2Cl)c1-c1ccc(Cl)cc1` [rimonabant], for which the glucose tolerance entry in series [1] is “normalized glucose tolerance”.

B1: shLuc: negative control shRNA directed against luciferase, SEQ ID NO. 7 (nucleic acid)
chain: GATCCGTGCGTTGCTAGTACCAATTCAAGAGATTGGTACTAGCAACGCACTTTTTTACGCGTG
For B1, the “inhibition of adipogenesis in vitro” value in series [2] (3T3-L1 cells, oil-red-O staining and aP2 expression at day 9) is “no inhibition”.

B2: shZdhhc2-2: shRNA specific for Zdhhc2 in pSIREN retroviral vector; target sequence probably SEQ ID NO. 6 (nucleic acid)
DNA: GATCCGTATGAGCAACCCTGCATTTCAAGAGAATGCAGGGTTGCTCATACTTTTTTACGCGTG
With B2, the aP2 expression decreased in series [2] (infected 3T3-L1 cells, day 9 of differentiation with DMI, RT-PCR) stood at 60%. In addition, the “knockdown of Zdhhc2 expression” value in series [3] is 50%.

For the origin of these results see patent US8841270B2, “Use of inhibitors of Zdhhc2 activity for modulation of adipogenesis” (Sanofi, priority 2009, dated 2014).
